Measurements published in article PMC6821881, “Development of a Potent and Protective Germline-Like Antibody Lineage Against Zika Virus in a Convalescent Human” (Frontiers in Immunology, 2019).
Positions count from the first letter of the chain named. In names and notes the source's numbering stands.

B1: 2H-6 (antibody, V domains shown)
VH: EVQLVQSGAEVKKPGASVKVSCKASGYTFTSYDVNWVRQATGQGLEWMGWLNPNSGNTGYAEKFQGRVTMTRNTSISTAYMELSSLRSEDTAVYYCARVSSGSYYGSYYYYYYGMDVWGQGTTVTVSS
VL: SYELTQPPSASGTPGQRVTISCSGSSSNIGNNYVHWYQQLPGSAPKLLIYRNNQRPSGVPDRFSGSKSGTSGSLAISGLRSEDEADYYCASWDDSLSGHWVFGGGTKVTVL
notes: also called ZK2B10 heavy chain somatic variant 2H-6; source: HEK 293T, transiently co-transfected, purified from supernatant (protein A agarose)
B2: 2H-4 (antibody, V domains shown)
VH: B1 VH with E1Q, A9R, A24G, V34I, T41P, L51M, E62Q, E89G
VL: B1 VL
notes: also called ZK2B10 heavy chain somatic variant 2H-4; source: HEK 293T, transiently co-transfected, purified from supernatant (protein A agarose)
B3: 2H-16 (antibody, V domains shown)
VH: B1 VH with E1Q, V34I, L51M, Y60C, E62Q
VL: B1 VL
notes: also called ZK2B10 heavy chain somatic variant 2H-16; source: HEK 293T, transiently co-transfected, purified from supernatant (protein A agarose)
B4: ZK2B10 (antibody, V domains shown)
VH: EVQLVQSGAEVKKPGASVKVSCKASGYTFTSGHTFPSYDINWVRQATGQGLEWMGWMNPNRGNTGYAQKFQGRVTMTRNTSINTAYMELSSLRSEDTAVYYCARVRSGTNYGSYYYYYYGMDVWGQGTTVTVSS
VL: B1 VL
notes: also called WT ZK2B10; wild-type (WT) ZK2B10; source: HEK 293T, transiently co-transfected, purified from supernatant (protein A agarose)
B5: 2H-10 (antibody, V domains shown)
VH: B1 VH with E1Q, A9V, K19E, K23Q, Y27I, F29S, V34I, T41N, L51M, E62Q
VL: B1 VL
notes: also called ZK2B10 heavy chain somatic variant 2H-10; source: HEK 293T, transiently co-transfected, purified from supernatant (protein A agarose)
B6: 2H-5 (antibody, V domains shown)
VH: B1 VH with E1Q, K19N, S31M, V34I, A40T, L51M, E62Q
VL: B1 VL
notes: also called ZK2B10 heavy chain somatic variant 2H-5; source: HEK 293T, transiently co-transfected, purified from supernatant (protein A agarose)
B7: 2H-9 (antibody, V domains shown)
VH: B1 VH with A9G, E10K, K12V, K13E, P14L, S31T, V34I, L51M, E62Q
VL: B1 VL
notes: also called ZK2B10 heavy chain somatic variant 2H-9; source: HEK 293T, transiently co-transfected, purified from supernatant (protein A agarose)
B8: 2H-15 (antibody, V domains shown)
VH: B1 VH with L51M, E62Q
VL: B1 VL
notes: also called ZK2B10 heavy chain somatic variant 2H-15; source: HEK 293T, transiently co-transfected, purified from supernatant (protein A agarose)
B9: 2L-1 (S31N+A91S) (antibody, V domains shown)
VH: B4 VH
VL: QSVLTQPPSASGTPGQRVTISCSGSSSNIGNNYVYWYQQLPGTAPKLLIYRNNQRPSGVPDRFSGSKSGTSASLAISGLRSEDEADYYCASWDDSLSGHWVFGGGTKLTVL
notes: also called double mutation (S31N+A91S) into 2L-1; source: HEK 293T, transiently co-transfected, purified from supernatant (protein A agarose)

molecular target: T1, ZIKV E DIII protein (residues 301-403) (Zika virus, isolate GZ01 (KU820898)); assay: ELISA; E protein or E DIII protein captured separately onto ELISA plates overnight at 4°C; each mAb (full-length IgG) serially diluted and applied; detected with anti-human IgG-HRP and TMB; EC50 by dose-response stimulation model; details: both partners purified
T1 construct: source: E. coli BL21 (RIL), pET28a, IPTG-induced; inclusion bodies solubilized and re-folded

Binding result, binds:
B1
B2
B3
B4
B5
B6
B7
B8
B9

molecular target: T2, ZIKV E protein (GZ01) (Zika virus, isolate GZ01 (KU820898)); assay: as above; details: both partners purified
T2 construct: also called full-length E; surface envelope glycoprotein (E); source: E. coli BL21 (RIL), pET28a, IPTG-induced; inclusion bodies solubilized and re-folded

Binding result, binds:
B1
B2
B3
B5
B6
B7
B8
B9
